In one assay the target is T1, hOGA (Homo sapiens, UniProt O60502).
T1 sequence (O60502 1-916): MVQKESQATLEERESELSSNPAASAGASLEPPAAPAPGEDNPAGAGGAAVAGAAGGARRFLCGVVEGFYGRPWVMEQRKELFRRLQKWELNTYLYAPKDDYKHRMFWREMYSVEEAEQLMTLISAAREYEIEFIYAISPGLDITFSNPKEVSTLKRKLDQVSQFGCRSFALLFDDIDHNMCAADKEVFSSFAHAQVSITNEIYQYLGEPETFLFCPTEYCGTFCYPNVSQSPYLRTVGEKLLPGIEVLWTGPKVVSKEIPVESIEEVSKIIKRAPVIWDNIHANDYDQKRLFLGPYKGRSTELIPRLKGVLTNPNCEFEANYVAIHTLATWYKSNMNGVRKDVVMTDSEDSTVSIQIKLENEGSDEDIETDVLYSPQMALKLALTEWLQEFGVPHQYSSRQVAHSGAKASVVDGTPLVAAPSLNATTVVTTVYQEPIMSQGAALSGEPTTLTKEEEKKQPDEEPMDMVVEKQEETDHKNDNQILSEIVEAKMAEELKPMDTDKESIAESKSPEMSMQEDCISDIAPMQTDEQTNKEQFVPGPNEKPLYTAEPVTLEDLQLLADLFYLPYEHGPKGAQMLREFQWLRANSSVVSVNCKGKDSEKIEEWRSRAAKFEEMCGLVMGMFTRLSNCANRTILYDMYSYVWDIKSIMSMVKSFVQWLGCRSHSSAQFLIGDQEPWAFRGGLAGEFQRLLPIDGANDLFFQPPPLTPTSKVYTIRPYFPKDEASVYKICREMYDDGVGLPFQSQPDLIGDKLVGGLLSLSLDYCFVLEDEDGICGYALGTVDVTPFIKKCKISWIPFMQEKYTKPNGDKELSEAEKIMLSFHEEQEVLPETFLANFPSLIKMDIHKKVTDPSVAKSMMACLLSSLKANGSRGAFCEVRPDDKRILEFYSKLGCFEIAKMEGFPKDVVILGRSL
Further details: GST (N); made in house. To be noted: wild-type hOGA; substrate competition assay with 4MU-GlcNAc; value reproduced from earlier paper; ref Schimpl et al., 2010; read-out: Michaelis constant (KM) of glycopeptide substrate for hOGA; cited from earlier work. The text has this: Table 1 Hydrophobic Stacking Interactions of Tyr69 Are Essential for Substrate Binding by hOGA | column: hOGA Peptide / VAHS(O-GlcNAc)GAK || Table 2 Intramolecular Hydrogen Bonds Stabilize the Substrate Conformation and Reduce the Km for hOGA | column: TAB1 Peptide (Ser395) || Figure 1 OGA Binds Different O-GlcNAc Glycopeptides with Similar Conformation but Different Affinities (A) Origin and sequence of O-GlcNAc peptides. The sequence of the longest peptides used is given, with residues observed in the crystal structure highlighted by colored boxes, and the shorter peptides indicated by brackets.

Assay [1] deals with T2, human O-GlcNAcase (hOGA) Y69S (human) (UniProt O60502).
T2 sequence: T1 sequence (O60502 1-916) with Y69S

Assay [2] deals with T3, human O-GlcNAcase (hOGA) Y69Q (human) (UniProt O60502).
T3 sequence: T1 sequence (O60502 1-916) with Y69Q

Positions count from the first letter of the chain named. *: point of attachment. βGlcNAc = CC(=O)N[C@@H]1[C@@H](O)[C@H](O)[C@@H](CO)O[C@H]1* Some results are limits rather than exact numbers.

With “VAHS(O-GlcNAc)GAK [hOGA (Ser405) 7, 7-residue O-GlcNAc glycopeptide derived from hOGA Ser405 site]”, at hOGA, the Km was 0.79 ± 0.04 mM.

B1: TAB1 peptide PVSVPYS(O-GlcNAc)SAQSTS (peptide)
peptide: Ac-PVSVPYS(βGlcNAc)SAQSTS-NH2
SMILES: CC(=O)N[C@H]1[C@H](OC[C@H](NC(=O)[C@H](Cc2ccc(O)cc2)NC(=O)[C@@H]2CCCN2C(=O)[C@@H](NC(=O)[C@H](CO)NC(=O)[C@@H](NC(=O)[C@@H]2CCCN2C(C)=O)C(C)C)C(C)C)C(=O)N[C@@H](CO)C(=O)N[C@@H](C)C(=O)N[C@@H](CCC(N)=O)C(=O)N[C@@H](CO)C(=O)N[C@H](C(=O)N[C@@H](CO)C(N)=O)[C@@H](C)O)O[C@H](CO)[C@@H](O)[C@@H]1O
Consider B1, for which the KM of the glycopeptide substrate (substrate competition assay with 4MU-GlcNAc as reporter substrate) in assay [1] was over 4 mM; in assay [2], 3.6 mM.
